Source: the supplement of paper PMC7877785
± gives the uncertainty stated by the source.

Assay: self-splicing fitness, log relative to wild type (ln ratio); higher = more splicing; Tetrahymena group I intron in knt gene, E. coli kanamycin selection, DiMSum; sequences stand for … in CUCUCU…GGAGGGAAAAGUUAUCAGGCAUGCACCUGGUAGCUAGUCUUUAAACCAAUAGAUUGCAUCGGUUUAAAAGGCAAGACCGUCAAAUUGCGGGAAAGGGGUCAACAGCCGUUCAGUACCAAGUCUCAGGGGAAACUUUGAGAUGGCCUUGCAAAGGGUAUGGUAAUAAGCUGACGGACAUGGUCCUAACCACGCAGCCAAGUCCUAAGUCAACAGAUCUUCUGUUGAUAUGGAUGCAGUUCACAGACUAAAUGUCGGUCGGGGAAGAUGUAUUCUUCUCAUAAGAUAUAGUCGGACCUCUCCUUAAUGGGAGCUAGCGGAUGAAGUGAUGCAACACUGGAGCCGCUGGGAACUAAUUUGUAUGCGAAAGUAUAUUGAUUAGUUUUGGAGUACUCGUGGUCG
Summary of the method: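 Six replicate transformations of E. coli BL21(DE3) with a pET-22b(+) library were grown overnight at 37°C or 30°C. The library randomised all eight P1ex-region intron nucleotides, the intron lying in the knt kanamycin-resistance gene, and plates were LB agar with or without 25 μg/mL kanamycin plus 100 μg/mL carbenicillin, 50 μM IPTG and 0.2% rhamnose. Pooled colonies were amplicon-sequenced on an Illumina HiSeq 2500, and fitness is the DiMSum error-weighted combination of wild-type-normalised replicate fold changes, kanamycin versus none.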

| Sequence | self-splicing fitness (ln) (30 °C) | self-splicing fitness (ln) (37 °C) |
| --- | --- | --- |
| GAGAAGCAAUAUUACGACGG | -3.47 ± 0.29 | -1.97 ± 0.23 |
| GAGAAGCAAUAUUACGACUC | -2.38 ± 0.18 | -1.82 ± 0.23 |
| GAGAAGCAAUAUUACGAGAG | -2.86 ± 0.23 | -1.91 ± 0.22 |
| GAGAAGCAAUAUUACGAGCG | -1.15 ± 0.16 | -0.106 ± 0.18 |
| GAGAAGCAAUAUUACGAGGC | -3.35 ± 0.21 | -1.78 ± 0.17 |
| GAGAAGCAAUAUUACGCAAU | -3.12 ± 0.17 | -1.52 ± 0.14 |
| GAGAAGCAAUAUUACGCACA | -0.725 ± 0.19 | 0.27 ± 0.25 |
| GAGAAGCAAUAUUACGCAGA | -2.84 ± 0.17 | -1.8 ± 0.19 |
| GAGAAGCAAUAUUACGCCAU | -2.68 ± 0.38 | -1.87 ± 0.35 |
| GAGAAGCAAUAUUACGCCUA | -0.659 ± 0.15 | -1.03 ± 0.14 |
| GAGAAGCAAUAUUACGCGAG | -1.75 ± 0.086 | -0.918 ± 0.078 |
| GAGAAGCAAUAUUACGCGCA | -0.304 ± 0.11 | 0.342 ± 0.12 |
| GAGAAGCAAUAUUACGGACG | -0.812 ± 0.12 | -0.528 ± 0.2 |
| GAGAAGCAAUAUUACGUACA | -0.535 ± 0.066 | -0.692 ± 0.077 |
| GAGAAGCAAUAUUACGUAGG | -3.2 ± 0.23 | -0.924 ± 0.15 |
| GAGAAGCAAUAUUACGUUUC | -3.64 ± 0.32 | -3.08 ± 0.27 |
| GAGCAGCAAUAUUACGAAUG | -3.81 ± 0.2 | -1.94 ± 0.14 |
| GAGCAGCAAUAUUACGACAG | -3.25 ± 0.21 | -2.6 ± 0.27 |
| GAGCAGCAAUAUUACGACGU | -0.383 ± 0.072 | -0.812 ± 0.079 |
| GAGCAGCAAUAUUACGAGUA | -2.42 ± 0.34 | -1.92 ± 0.26 |
| GAGCAGCAAUAUUACGAGUC | -1.91 ± 0.12 | -1.92 ± 0.17 |
| GAGCAGCAAUAUUACGAUAC | -1.61 ± 0.12 | -1.45 ± 0.15 |
| GAGCAGCAAUAUUACGCACC | -2.67 ± 0.39 | -1.82 ± 0.48 |
| GAGCAGCAAUAUUACGCCCC | -2.24 ± 0.47 | – |
| GAGCAGCAAUAUUACGCCCU | -0.964 ± 0.31 | – |

| Sequence | self-splicing fitness (ln) (30 °C) | self-splicing fitness (ln) (37 °C) |
| --- | --- | --- |
| GAGCAGCAAUAUUACGCCGC | -1.63 ± 0.22 | -2.43 ± 0.38 |
| GAGCAGCAAUAUUACGCGAG | -2.38 ± 0.14 | -0.876 ± 0.12 |
| GAGCAGCAAUAUUACGCGAU | -4.28 ± 0.33 | -0.0586 ± 0.21 |
| GAGCAGCAAUAUUACGCUAC | – | -1.95 ± 0.33 |
| GAGCAGCAAUAUUACGCUUU | -1.94 ± 0.18 | -2.5 ± 0.26 |
| GAGCAGCAAUAUUACGGACU | -1.32 ± 0.082 | -0.127 ± 0.11 |
| GAGCAGCAAUAUUACGGCGC | -0.751 ± 0.12 | 0.209 ± 0.17 |
| GAGCAGCAAUAUUACGGGCG | -2.09 ± 0.14 | -0.811 ± 0.16 |
| GAGCAGCAAUAUUACGGUUA | -0.804 ± 0.1 | -0.875 ± 0.1 |
| GAGCAGCAAUAUUACGUACA | -1.06 ± 0.22 | -0.116 ± 0.17 |
| GAGCAGCAAUAUUACGUAGU | -3.35 ± 0.19 | -1.01 ± 0.15 |
| GAGCAGCAAUAUUACGUCAU | -2.38 ± 0.12 | -1.02 ± 0.13 |
| GAGCAGCAAUAUUACGUCUA | 0.0729 ± 0.12 | 0.0653 ± 0.13 |
| GAGCAGCAAUAUUACGUGCG | -1.65 ± 0.12 | -1.25 ± 0.11 |
| GAGCAGCAAUAUUACGUGGA | -3.09 ± 0.22 | -1.69 ± 0.15 |
| GAGCAGCAAUAUUACGUGGU | -3.66 ± 0.25 | -2.25 ± 0.23 |
| GAGCAGCAAUAUUACGUGUU | -3.3 ± 0.33 | -2.81 ± 0.22 |
| GAGCAGCAAUAUUACGUUAA | -3.53 ± 0.27 | -0.69 ± 0.13 |
| GAGCAGCAAUAUUACGUUAG | -2.57 ± 0.16 | -1.93 ± 0.19 |
| GAGGAGCAAUAUUACGAACG | -2.65 ± 0.22 | -1.54 ± 0.25 |
| GAGGAGCAAUAUUACGACAG | -1.38 ± 0.36 | -1.5 ± 0.39 |
| GAGGAGCAAUAUUACGACUC | -3.04 ± 0.27 | -2.25 ± 0.31 |
| GAGGAGCAAUAUUACGAGAU | -2.78 ± 0.32 | – |
| GAGGAGCAAUAUUACGAGGG | – | -1.96 ± 0.41 |
| GAGGAGCAAUAUUACGAGGU | -2.71 ± 0.24 | -3.09 ± 0.25 |

| Sequence | self-splicing fitness (ln) (30 °C) | self-splicing fitness (ln) (37 °C) |
| --- | --- | --- |
| GAGGAGCAAUAUUACGAUUA | -1.73 ± 0.15 | -1.8 ± 0.13 |
| GAGGAGCAAUAUUACGCACG | – | -0.155 ± 0.47 |
| GAGGAGCAAUAUUACGCCAC | – | -2.39 ± 0.37 |
| GAGGAGCAAUAUUACGCCUC | – | -2.29 ± 0.42 |
| GAGGAGCAAUAUUACGCCUG | -2.07 ± 0.41 | -1.3 ± 0.44 |
| GAGGAGCAAUAUUACGCGAA | -2.67 ± 0.35 | -2.05 ± 0.3 |
| GAGGAGCAAUAUUACGCUUU | – | -2.06 ± 0.41 |
| GAGGAGCAAUAUUACGGACA | -3.15 ± 0.33 | -1.96 ± 0.3 |
| GAGGAGCAAUAUUACGGGCG | -2.68 ± 0.32 | -1.56 ± 0.24 |
| GAGGAGCAAUAUUACGGUCA | -2.76 ± 0.21 | -2.19 ± 0.21 |
| GAGGAGCAAUAUUACGGUGG | -2.76 ± 0.2 | – |
| GAGGAGCAAUAUUACGGUGU | -3.56 ± 0.27 | -1.59 ± 0.21 |
| GAGGAGCAAUAUUACGGUUC | – | -3.2 ± 0.35 |
| GAGGAGCAAUAUUACGUCGU | -0.318 ± 0.28 | -2.14 ± 0.34 |
| GAGGAGCAAUAUUACGUGAG | -3.37 ± 0.4 | -2.22 ± 0.26 |
| GAGUAGCAAUAUUACGACGA | -0.0886 ± 0.15 | -0.664 ± 0.12 |
| GAGUAGCAAUAUUACGCAGG | -3.04 ± 0.22 | -3.26 ± 0.24 |
| GAGUAGCAAUAUUACGCAUU | -3.07 ± 0.13 | -2.07 ± 0.12 |
| GAGUAGCAAUAUUACGCCUU | -3.2 ± 0.23 | -0.976 ± 0.24 |
| GAGUAGCAAUAUUACGCGUG | -2.16 ± 0.08 | -0.531 ± 0.089 |
| GAGUAGCAAUAUUACGCUAU | -3.73 ± 0.27 | – |
| GAGUAGCAAUAUUACGGACA | -1.44 ± 0.087 | -0.816 ± 0.082 |
| GAGUAGCAAUAUUACGGACG | -3.14 ± 0.28 | -0.531 ± 0.2 |
| GAGUAGCAAUAUUACGGCAC | -0.661 ± 0.2 | -0.256 ± 0.21 |
| GAGUAGCAAUAUUACGGGCU | -1.43 ± 0.17 | -1.94 ± 0.16 |

| Sequence | self-splicing fitness (ln) (30 °C) | self-splicing fitness (ln) (37 °C) |
| --- | --- | --- |
| GAGUAGCAAUAUUACGGUUC | -1.02 ± 0.12 | -2.36 ± 0.3 |
| GAGUAGCAAUAUUACGUAGC | -2.44 ± 0.34 | – |
| GAGUAGCAAUAUUACGUAUU | -3.24 ± 0.16 | -1.79 ± 0.11 |
| GAGUAGCAAUAUUACGUGAA | -2.5 ± 0.16 | -1.95 ± 0.15 |
| GAGUAGCAAUAUUACGUGAG | -2.5 ± 0.081 | -1.28 ± 0.12 |
| GAGUAGCAAUAUUACGUGGA | -3.37 ± 0.28 | -2.52 ± 0.17 |
| GAGUAGCAAUAUUACGUGUC | -1.73 ± 0.16 | -1.53 ± 0.26 |
| GAGUAGCAAUAUUACGUGUU | -3.05 ± 0.12 | -1.12 ± 0.1 |
| GAGUAGCAAUAUUACGUUAU | -2.9 ± 0.23 | -2.12 ± 0.21 |
| GAGUAGCAAUAUUACGUUCC | -1.88 ± 0.46 | – |
| GAGUAGCAAUAUUACGUUCU | -2.18 ± 0.18 | -2.56 ± 0.21 |
| GAGUAGCAAUAUUACGUUUA | -3.09 ± 0.25 | -1.63 ± 0.19 |
| GAUAAGCAAUAUUACGAAAC | -2.38 ± 0.2 | -0.746 ± 0.19 |
| GAUAAGCAAUAUUACGAAAG | -2.76 ± 0.18 | -1.66 ± 0.21 |
| GAUAAGCAAUAUUACGAACA | -1.02 ± 0.092 | -0.468 ± 0.097 |
| GAUAAGCAAUAUUACGACAA | -1.46 ± 0.11 | -0.276 ± 0.14 |
| GAUAAGCAAUAUUACGACGG | -2.96 ± 0.17 | -2.34 ± 0.27 |
| GAUAAGCAAUAUUACGAGAA | – | -1.38 ± 0.38 |
| GAUAAGCAAUAUUACGAUAA | -1.46 ± 0.13 | 0.344 ± 0.13 |
| GAUAAGCAAUAUUACGAUCA | -1.33 ± 0.1 | -0.134 ± 0.1 |
| GAUAAGCAAUAUUACGCGCA | -0.808 ± 0.085 | 0.383 ± 0.13 |
| GAUAAGCAAUAUUACGCUUG | -2.05 ± 0.1 | -0.952 ± 0.1 |
| GAUAAGCAAUAUUACGGACA | -1.39 ± 0.09 | -0.559 ± 0.088 |
| GAUAAGCAAUAUUACGGACU | -0.638 ± 0.07 | -0.289 ± 0.094 |
| GAUAAGCAAUAUUACGGCAA | -0.963 ± 0.14 | -0.998 ± 0.16 |
